Assay results from article PMC6098130.

Molecular target: IgM-BCR (Ighm) (mouse (endogenous in primary B cells))

Work on “recombinant mouse galectin-9 (rGal9, E. coli-derived, R&D Systems) (from UniProt O08573 1-353) (natural protein)” yielded a median diffusion coefficient of IgM in galectin-9-high regions (against 0.028 μm^2/s in galectin-9-low regions), single-particle tracking on Gal9-KO B cells treated with fluorescently labeled rGal9 of 0.012 μm^2/s.
